Measured values: patent US20140161790A1

Tests used:
[1] = target: human FcRn (heterodimer of alpha chain and beta2-microglobulin) (human) (UniProt P55899); assay: Biacore (SPR), column 'hFcRn Affinity (uM)'; antibody captured on anti-hFab CM5 chip, hFcRn as analyte, PBS pH 6.0, 1:1 Langmuir fit
[2] = target: recombinant human TNF (human) (UniProt P01375); assay: Biacore (SPR), column 'hTNF Affinity (pM)'; antibody amine-coupled to a CM4 chip, recombinant human TNF as analyte at 6.25-200 nM in HBS-EP pH 7.4, 1:1 Langmuir fit
recombinant human TNF (human), sequence (P01375 77-233 limits assumed): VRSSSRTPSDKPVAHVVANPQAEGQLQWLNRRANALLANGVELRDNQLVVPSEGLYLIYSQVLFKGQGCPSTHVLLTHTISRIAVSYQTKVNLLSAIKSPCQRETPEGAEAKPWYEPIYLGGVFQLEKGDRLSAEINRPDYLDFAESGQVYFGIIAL

Kd [1]: 2000 nM
Kd [2]: 0.00042 nM
Substance: Humira (Commercial) adalimumab (antibody)
